Test results as given in publication PMC2926604 (Nucleic Acids Research, 2010).

T1: Archaeoglobus fulgidus exosome subunit Rrp42 (Archaeoglobus fulgidus, UniProt O29756 1-259)
T1 sequence: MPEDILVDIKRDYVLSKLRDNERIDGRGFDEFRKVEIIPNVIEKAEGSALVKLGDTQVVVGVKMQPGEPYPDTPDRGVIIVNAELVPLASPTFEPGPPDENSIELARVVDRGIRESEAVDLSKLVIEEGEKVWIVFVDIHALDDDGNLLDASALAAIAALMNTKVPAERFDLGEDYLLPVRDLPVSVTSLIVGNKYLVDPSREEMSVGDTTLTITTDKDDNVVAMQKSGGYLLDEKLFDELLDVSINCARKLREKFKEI

T2: Rrp41 (archaeal exosome subunit);Rrp42 Y70A;Csl4 (exosome cap) (Archaeoglobus fulgidus (printed …, UniProt O29757;O29756;O30033 1-258;1-259;1-179, |Y70A|))
T2 sequence 1: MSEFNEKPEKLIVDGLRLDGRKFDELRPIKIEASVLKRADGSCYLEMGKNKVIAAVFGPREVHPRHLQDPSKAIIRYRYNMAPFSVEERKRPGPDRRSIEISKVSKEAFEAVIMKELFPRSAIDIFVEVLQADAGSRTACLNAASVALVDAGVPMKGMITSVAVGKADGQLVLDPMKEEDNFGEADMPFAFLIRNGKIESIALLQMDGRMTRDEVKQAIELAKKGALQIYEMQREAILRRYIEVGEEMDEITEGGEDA
T2 sequence 2: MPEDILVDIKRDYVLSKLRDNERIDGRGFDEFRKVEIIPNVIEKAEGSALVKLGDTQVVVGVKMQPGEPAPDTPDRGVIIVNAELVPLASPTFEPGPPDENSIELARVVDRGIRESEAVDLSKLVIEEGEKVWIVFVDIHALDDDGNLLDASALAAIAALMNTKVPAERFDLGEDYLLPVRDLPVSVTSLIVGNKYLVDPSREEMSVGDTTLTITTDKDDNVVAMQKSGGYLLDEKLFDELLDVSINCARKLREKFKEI
T2 sequence 3: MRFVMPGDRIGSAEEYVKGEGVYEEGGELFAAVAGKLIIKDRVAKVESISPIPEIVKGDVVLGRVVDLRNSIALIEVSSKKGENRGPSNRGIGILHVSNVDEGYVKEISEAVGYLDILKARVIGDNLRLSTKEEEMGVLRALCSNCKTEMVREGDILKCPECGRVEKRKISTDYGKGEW

T3: Rrp41 (archaeal exosome subunit);Rrp42 (archaeal exosome subunit);Csl4 (exosome cap) (Archaeoglobus fulgidus (printed …, UniProt O29757;O29756;O30033 1-258;1-259;1-179, ||))
T3 sequence 1: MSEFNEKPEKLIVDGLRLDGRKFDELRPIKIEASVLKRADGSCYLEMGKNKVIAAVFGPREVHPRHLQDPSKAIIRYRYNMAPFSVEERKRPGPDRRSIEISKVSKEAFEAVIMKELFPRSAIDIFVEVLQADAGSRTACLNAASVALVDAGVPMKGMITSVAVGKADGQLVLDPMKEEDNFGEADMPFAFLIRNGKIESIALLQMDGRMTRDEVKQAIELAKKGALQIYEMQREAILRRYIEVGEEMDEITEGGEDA
T3 sequence 2: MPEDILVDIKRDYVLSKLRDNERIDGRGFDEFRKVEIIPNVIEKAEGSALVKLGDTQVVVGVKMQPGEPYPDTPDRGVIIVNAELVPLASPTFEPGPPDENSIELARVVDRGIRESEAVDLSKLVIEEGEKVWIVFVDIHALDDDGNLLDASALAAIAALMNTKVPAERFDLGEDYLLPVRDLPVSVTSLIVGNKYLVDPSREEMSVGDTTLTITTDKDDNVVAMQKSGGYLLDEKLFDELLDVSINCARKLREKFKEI
T3 sequence 3: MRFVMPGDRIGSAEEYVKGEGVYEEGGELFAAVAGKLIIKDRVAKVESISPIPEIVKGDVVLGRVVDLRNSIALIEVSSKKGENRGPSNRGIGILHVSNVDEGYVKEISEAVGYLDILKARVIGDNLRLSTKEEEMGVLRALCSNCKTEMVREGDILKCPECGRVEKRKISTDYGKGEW

T4: Archaeoglobus fulgidus exosome subunit Rrp42 Y70A (Archaeoglobus fulgidus, UniProt O29756 1-259, Y70A)
T4 sequence: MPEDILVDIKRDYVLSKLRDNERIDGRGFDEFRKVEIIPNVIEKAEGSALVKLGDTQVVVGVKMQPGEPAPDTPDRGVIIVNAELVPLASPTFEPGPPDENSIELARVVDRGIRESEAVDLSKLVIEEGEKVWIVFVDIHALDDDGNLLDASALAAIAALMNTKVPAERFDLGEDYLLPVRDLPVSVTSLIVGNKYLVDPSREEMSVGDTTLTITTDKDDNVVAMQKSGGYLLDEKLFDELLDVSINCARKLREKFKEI

B1: Archaeoglobus fulgidus exosome subunit Rrp41 (natural protein)
chain: MSEFNEKPEKLIVDGLRLDGRKFDELRPIKIEASVLKRADGSCYLEMGKNKVIAAVFGPREVHPRHLQDPSKAIIRYRYNMAPFSVEERKRPGPDRRSIEISKVSKEAFEAVIMKELFPRSAIDIFVEVLQADAGSRTACLNAASVALVDAGVPMKGMITSVAVGKADGQLVLDPMKEEDNFGEADMPFAFLIRNGKIESIALLQMDGRMTRDEVKQAIELAKKGALQIYEMQREAILRRYIEVGEEMDEITEGGEDA
B2: Archaeoglobus fulgidus exosome subunit Rrp41 D180A (natural protein)
chain: MSEFNEKPEKLIVDGLRLDGRKFDELRPIKIEASVLKRADGSCYLEMGKNKVIAAVFGPREVHPRHLQDPSKAIIRYRYNMAPFSVEERKRPGPDRRSIEISKVSKEAFEAVIMKELFPRSAIDIFVEVLQADAGSRTACLNAASVALVDAGVPMKGMITSVAVGKADGQLVLDPMKEEANFGEADMPFAFLIRNGKIESIALLQMDGRMTRDEVKQAIELAKKGALQIYEMQREAILRRYIEVGEEMDEITEGGEDA

Key:
[1] = biological target: B2; assay: SAXS
[2] = biological target: T1, Archaeoglobus fulgidus exosome subunit …; assay: SAXS
[3] = biological target: T2, Rrp41 (archaeal exosome subunit);Rrp42 …; assay: X-ray crystallography
[4] = biological target: T3, Rrp41 (archaeal exosome subunit);Rrp42 …; assay: X-ray crystallography
[5] = biological target: T4, Archaeoglobus fulgidus exosome subunit …; assay: crystal structure
[6] = biological target: T1, Archaeoglobus fulgidus exosome subunit …; assay: crystal structure
[7] = biological target: B1; assay: crystal structure

binding result [2]	binding result [5]	binding result [6]	Binder	further results
binds	–	–	Archaeoglobus fulgidus exosome cap subunit Rrp4 (natural protein, UniProt O29758 1-223, looked up) MRKIVLPGDLLSTNPRAAGYGTYVEGGKVYAKIIGLFDQTETHVRVIPLKGRYTPSVGDVVIGIIREVAANGWAVDIYSPYQAFLPVSENPEMKPNKKPNEVLDIGDAIIAKVLNIDPKMKVTLTMKDRICRPIRFGRIVAINPARVPRVIGKKGSMIKLLKSELDVQIVVGQNGLIWVNGDRRKVSIAEEAIYLIEQEAHTEGLTDRVAEFIKRRKADVGIQ	binding result [1]: binds
–	–	–	CCCCUC (ssRNA) [6-mer RNA for crystallization]	binding result [3]: binds; binding result [4]: binds
–	binds	binds	B1	–
binds	–	–	B2	–
–	binds	binds	Archaeoglobus fulgidus exosome cap subunit Csl4 (natural protein) MRFVMPGDRIGSAEEYVKGEGVYEEGGELFAAVAGKLIIKDRVAKVESISPIPEIVKGDVVLGRVVDLRNSIALIEVSSKKGENRGPSNRGIGILHVSNVDEGYVKEISEAVGYLDILKARVIGDNLRLSTKEEEMGVLRALCSNCKTEMVREGDILKCPECGRVEKRKISTDYGKGEW	binding result [7]: binds
